Results: patent US20240182536A1 (MURAL ONCOLOGY, published 2024)

T1: IL-18 receptors on HEK-Blue IL-18 reporter cells (UniProt Q13478 19-541; O95256 20-599, limits assumed)
T1 sequence (looked up) 1: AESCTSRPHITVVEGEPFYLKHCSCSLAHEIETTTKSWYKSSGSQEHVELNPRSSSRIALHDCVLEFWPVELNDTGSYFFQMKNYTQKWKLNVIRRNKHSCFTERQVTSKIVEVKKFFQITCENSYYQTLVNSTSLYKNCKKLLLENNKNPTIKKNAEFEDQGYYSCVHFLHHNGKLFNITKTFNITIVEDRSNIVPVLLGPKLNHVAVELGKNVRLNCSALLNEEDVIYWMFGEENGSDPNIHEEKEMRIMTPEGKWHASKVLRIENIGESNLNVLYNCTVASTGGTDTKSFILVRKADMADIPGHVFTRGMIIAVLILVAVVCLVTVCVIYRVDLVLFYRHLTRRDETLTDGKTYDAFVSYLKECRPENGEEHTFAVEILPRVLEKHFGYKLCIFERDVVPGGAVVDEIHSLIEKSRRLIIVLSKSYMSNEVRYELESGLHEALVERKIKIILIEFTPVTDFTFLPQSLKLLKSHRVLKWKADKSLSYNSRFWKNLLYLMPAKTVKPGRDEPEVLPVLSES
T1 sequence (looked up) 2: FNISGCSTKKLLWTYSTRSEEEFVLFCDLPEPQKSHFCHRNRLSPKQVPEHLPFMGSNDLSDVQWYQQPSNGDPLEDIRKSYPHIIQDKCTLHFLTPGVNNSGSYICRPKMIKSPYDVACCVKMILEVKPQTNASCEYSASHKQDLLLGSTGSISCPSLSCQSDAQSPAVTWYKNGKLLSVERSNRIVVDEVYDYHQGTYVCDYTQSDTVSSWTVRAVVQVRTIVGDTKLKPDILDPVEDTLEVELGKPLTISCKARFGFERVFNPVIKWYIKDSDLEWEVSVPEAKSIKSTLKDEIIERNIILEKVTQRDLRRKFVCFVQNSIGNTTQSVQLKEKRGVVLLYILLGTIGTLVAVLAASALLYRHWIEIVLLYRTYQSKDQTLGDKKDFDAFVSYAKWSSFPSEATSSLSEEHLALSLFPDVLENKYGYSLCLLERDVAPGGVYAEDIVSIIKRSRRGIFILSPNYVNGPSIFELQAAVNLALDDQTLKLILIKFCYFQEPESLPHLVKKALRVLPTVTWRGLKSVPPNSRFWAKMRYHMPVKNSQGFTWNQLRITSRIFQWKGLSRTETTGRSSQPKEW

T2: interleukin 18 binding protein (IL-18BP) (UniProt O95998 31-194)
T2 sequence (looked up): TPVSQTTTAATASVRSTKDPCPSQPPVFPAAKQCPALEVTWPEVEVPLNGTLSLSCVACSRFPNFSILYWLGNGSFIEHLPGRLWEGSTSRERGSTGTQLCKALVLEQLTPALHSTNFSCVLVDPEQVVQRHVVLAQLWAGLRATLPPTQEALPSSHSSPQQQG


Tests used:
[1] = target: T1, IL-18 receptors on HEK-Blue IL-18 …; assay: cell-based or functional assay
[2] = target: T2, interleukin 18 binding protein (IL-18BP); assay: cell-based or functional assay

Binder | HEK-Blue activity, No BP, DF-10000 [1] | HEK-Blue activity, No BP, DF-100,000 [1] | HEK-Blue activity, No BP, DF-1,000,000 [1] | HEK-Blue activity, +100 nM BP, DF-10000 [2] | HEK-Blue activity, +100 nM BP, DF-100,000 [2] | HEK-Blue activity, +100 nM BP, DF-1,000,000 [2] | Ratio (-BP/+BP), DF-10000 [2] | Ratio (-BP/+BP), DF-100,000 [2] | Ratio (-BP/+BP), DF-1,000,000 [2]
IL-18 variant K53H, S55M, T63S (ligand) YFGKLESKLSVIRNLNDQVLFIDQGNRPLFEDMTDSDMRDNAPRTIFIISMYHDMQPRGMAVSISVKSEKISTLSSENKIISFKEMNPPDNIKDTKSDIIFFQRSVPGHDNKMQFESSSYEGYFLASEKERDLFKLILKKEDELGDRSIMFTVQNED | 0.13 | 0.1 | 0.09 | 0.18 | 0.12 | 0.11 | 0.72 | 0.83 | 0.83
IL-18 variant K53H, S55R (ligand) YFGKLESKLSVIRNLNDQVLFIDQGNRPLFEDMTDSDMRDNAPRTIFIISMYHDRQPRGMAVTISVKSEKISTLSSENKIISFKEMNPPDNIKDTKSDIIFFQRSVPGHDNKMQFESSSYEGYFLASEKERDLFKLILKKEDELGDRSIMFTVQNED | 0.12 | 0.1 | 0.09 | 0.12 | 0.09 | 0.09 | 0.97 | 1.09 | 1
IL-18 variant T34N, S36Y, D40H, N41T, K53G, S55Y (ligand) YFGKLESKLSVIRNLNDQVLFIDQGNRPLFEDMNDYDMRHTAPRTIFIISMYGDYQPRGMAVTISVKSEKISTLSSENKIISFKEMNPPDNIKDTKSDIIFFQRSVPGHDNKMQFESSSYEGYFLASEKERDLFKLILKKEDELGDRSIMFTVQNED | 0.12 | 0.1 | 0.09 | 0.11 | 0.09 | 0.09 | 1.08 | 1.02 | 0.97
IL-18 variant K53N, S55H, H109F (ligand) YFGKLESKLSVIRNLNDQVLFIDQGNRPLFEDMTDSDMRDNAPRTIFIISMYNDHQPRGMAVTISVKSEKISTLSSENKIISFKEMNPPDNIKDTKSDIIFFQRSVPGFDNKMQFESSSYEGYFLASEKERDLFKLILKKEDELGDRSIMFTVQNED | 0.13 | 0.1 | 0.1 | 0.11 | 0.09 | 0.09 | 1.17 | 1.06 | 1.17
IL-18 variant K53L, S55G (ligand) YFGKLESKLSVIRNLNDQVLFIDQGNRPLFEDMTDSDMRDNAPRTIFIISMYLDGQPRGMAVTISVKSEKISTLSSENKIISFKEMNPPDNIKDTKSDIIFFQRSVPGHDNKMQFESSSYEGYFLASEKERDLFKLILKKEDELGDRSIMFTVQNED | 0.12 | 0.1 | 0.09 | 0.14 | 0.11 | 0.11 | 0.87 | 0.92 | 0.89
IL-18 variant T34S, S36L, D37E, D40Y, N41M, K53T, S55K, P107K, H109Q (ligand) YFGKLESKLSVIRNLNDQVLFIDQGNRPLFEDMSDLEMRYMAPRTIFIISMYTDKQPRGMAVTISVKSEKISTLSSENKIISFKEMNPPDNIKDTKSDIIFFQRSVKGQDNKMQFESSSYEGYFLASEKERDLFKLILKKEDELGDRSIMFTVQNED | 0.11 | 0.1 | 0.09 | 0.1 | 0.1 | 0.09 | 1.11 | 0.98 | 0.98
IL-18 variant K53H, S55H, N87D, H109I (ligand) YFGKLESKLSVIRNLNDQVLFIDQGNRPLFEDMTDSDMRDNAPRTIFIISMYHDHQPRGMAVTISVKSEKISTLSSENKIISFKEMDPPDNIKDTKSDIIFFQRSVPGIDNKMQFESSSYEGYFLASEKERDLFKLILKKEDELGDRSIMFTVQNED | 0.11 | 0.1 | 0.09 | 0.1 | 0.1 | 0.1 | 1.1 | 0.96 | 0.88
IL-18 variant K53G, S55V, R104Y, H109N (ligand) YFGKLESKLSVIRNLNDQVLFIDQGNRPLFEDMTDSDMRDNAPRTIFIISMYGDVQPRGMAVTISVKSEKISTLSSENKIISFKEMNPPDNIKDTKSDIIFFQYSVPGNDNKMQFESSSYEGYFLASEKERDLFKLILKKEDELGDRSIMFTVQNED | 0.13 | 0.12 | 0.1 | 0.11 | 0.14 | 0.1 | 1.17 | 0.9 | 1.02
IL-18 variant T34N, S36Y, D37E, D40Q, N41Q, K53D, S55D (ligand) YFGKLESKLSVIRNLNDQVLFIDQGNRPLFEDMNDYEMRQQAPRTIFIISMYDDDQPRGMAVTISVKSEKISTLSSENKIISFKEMNPPDNIKDTKSDIIFFQRSVPGHDNKMQFESSSYEGYFLASEKERDLFKLILKKEDELGDRSIMFTVQNED | 0.11 | 0.09 | 0.09 | 0.1 | 0.1 | 0.09 | 1.11 | 0.96 | 1
IL-18 variant K53D, S55N, H109I (ligand) YFGKLESKLSVIRNLNDQVLFIDQGNRPLFEDMTDSDMRDNAPRTIFIISMYDDNQPRGMAVTISVKSEKISTLSSENKIISFKEMNPPDNIKDTKSDIIFFQRSVPGIDNKMQFESSSYEGYFLASEKERDLFKLILKKEDELGDRSIMFTVQNED | 0.13 | 0.12 | 0.09 | 0.1 | 0.09 | 0.09 | 1.28 | 1.42 | 0.99
IL-18 variant K53H, S55Y, Q56H (ligand) YFGKLESKLSVIRNLNDQVLFIDQGNRPLFEDMTDSDMRDNAPRTIFIISMYHDYHPRGMAVTISVKSEKISTLSSENKIISFKEMNPPDNIKDTKSDIIFFQRSVPGHDNKMQFESSSYEGYFLASEKERDLFKLILKKEDELGDRSIMFTVQNED | 0.12 | 0.1 | 0.09 | 0.12 | 0.09 | 0.09 | 1.05 | 1.03 | 0.96
